# Data from paper doi:10.1101/2021.10.20.465084 (bioRxiv, 2021).
# Positions of bridges follow the written chain, without caps; N, C: chain ends. No end group written: not given here. *: point of attachment. Biotin = O=C1N[C@H]2[C@H](CS[C@H]2CCCCC(=O)*)N1; βAla = NCCC(=O)O
# T1: Prefoldin from Pyrococcus horikoshii (PhPFD-α2β4 heterohexamer, 86.4 kDa) (Pyrococcus horikoshii, UniProt O58263 1-148; O58268 1-117, S98G)
# T1 sequence 1: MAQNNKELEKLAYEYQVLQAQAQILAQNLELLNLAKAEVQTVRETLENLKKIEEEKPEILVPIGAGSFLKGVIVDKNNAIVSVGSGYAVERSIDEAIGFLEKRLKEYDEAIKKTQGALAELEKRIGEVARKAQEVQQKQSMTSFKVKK
# T1 sequence 2: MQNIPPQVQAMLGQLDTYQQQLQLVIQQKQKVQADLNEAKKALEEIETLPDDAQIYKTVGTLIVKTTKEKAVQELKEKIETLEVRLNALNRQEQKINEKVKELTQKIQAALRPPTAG
# B1: biotinylated IAPP (biotinyl-[β-Ala]-[β-Ala]-IAPP-NH2) (peptide)
# peptide: {Biotin-βAla-βAla}-KCNTATCATQRLANFLVHSSNNFGAILSSTNVGSNTY-NH2
# modifications: disulfide 2-7
# SMILES: CC[C@H](C)[C@H](NC(=O)[C@H](C)NC(=O)CNC(=O)[C@H](Cc1ccccc1)NC(=O)[C@H](CC(N)=O)NC(=O)[C@H](CC(N)=O)NC(=O)[C@H](CO)NC(=O)[C@H](CO)NC(=O)[C@H](Cc1c[nH]cn1)NC(=O)[C@@H](NC(=O)[C@H](CC(C)C)NC(=O)[C@H](Cc1ccccc1)NC(=O)[C@H](CC(N)=O)NC(=O)[C@H](C)NC(=O)[C@H](CC(C)C)NC(=O)[C@H](CCCNC(=N)N)NC(=O)[C@H](CCC(N)=O)NC(=O)[C@@H](NC(=O)[C@H](C)NC(=O)[C@@H]1CSSC[C@H](NC(=O)[C@H](CCCCN)NC(=O)CCNC(=O)CCNC(=O)CCCC[C@@H]2SC[C@@H]3NC(=O)N[C@@H]32)C(=O)N[C@@H](CC(N)=O)C(=O)N[C@@H]([C@@H](C)O)C(=O)N[C@@H](C)C(=O)N[C@@H]([C@@H](C)O)C(=O)N1)[C@@H](C)O)C(C)C)C(=O)N[C@@H](CC(C)C)C(=O)N[C@@H](CO)C(=O)N[C@@H](CO)C(=O)N[C@H](C(=O)N[C@@H](CC(N)=O)C(=O)N[C@H](C(=O)NCC(=O)N[C@@H](CO)C(=O)N[C@@H](CC(N)=O)C(=O)N[C@H](C(=O)N[C@@H](Cc1ccc(O)cc1)C(N)=O)[C@@H](C)O)C(C)C)[C@@H](C)O
# How the values were obtained:
# [1] = biological target: T1, Prefoldin from Pyrococcus horikoshii …; experiment: NMR titration
# [2] = biological target: T1, Prefoldin from Pyrococcus horikoshii …; experiment: BLI
Binder,Kd [1],koff [1],Kd [2]
"KCNTATCATQRLANFLVHSSNNFGAILSSTNVGSNTY (ends and bridges not checked; also: uniformly [15N]-labelled) [U-[15N]-labelled human islet amyloid polypeptide (IAPP), recombinant, monomeric]",61 µM,~6000 s⁻¹,–
B1,–,–,16 ± 2.4 µM
